Reference: US20130101549A1 (Biogen, published 2013)

T1: human HVEM-Ig (human, UniProt Q92956 39-202)
T1 construct: Expressed and purified in house; also called HVEM-Fc; Herpes virus entry mediator-Ig
T1 sequence (looked up): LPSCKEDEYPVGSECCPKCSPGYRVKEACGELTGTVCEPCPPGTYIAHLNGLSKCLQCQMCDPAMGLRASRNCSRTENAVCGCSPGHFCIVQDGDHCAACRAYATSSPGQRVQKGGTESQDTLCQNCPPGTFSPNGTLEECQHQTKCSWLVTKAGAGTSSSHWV

T2: murine HVEM-Ig (mouse, UniProt Q80WM9 39-210)
T2 construct: Expressed and purified in house
T2 sequence (looked up): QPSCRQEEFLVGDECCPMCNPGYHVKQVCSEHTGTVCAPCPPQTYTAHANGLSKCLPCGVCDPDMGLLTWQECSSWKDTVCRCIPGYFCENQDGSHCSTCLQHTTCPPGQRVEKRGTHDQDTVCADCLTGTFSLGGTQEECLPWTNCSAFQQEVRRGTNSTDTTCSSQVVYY

B1: anti-IGFR C06 Fab-hLIGHT fusion protein (C06-hLIGHT) (other)
heavy: EVQLLESGGGLVQPGGSLRLSCAASGFTFSIYRMQWVRQAPGKGLEWVSGISPSGGTTWYADSVKGRFTISRDNSKNTLYLQMNSLRAEDTAVYYCARWSGGSGYAFDIWGQGTMVTVSSASTKGPSVFPLAPSSKSTSGGTAALGCLVKDYFPEPVTVSWNSGALTSGVHTFPAVLQSSGLYSLSSVVTVPSSSLGTQTYICNVNHKPSNTKVDKKVEPKSCDKGGGGSGGGGSGGGGSGGGGSNPAAHLTGANSSLTGSGGPLLWETQLGLAFLRGLSYHDGALVVTKAGYYYIYSKVQLGGVGCPLGLASTITHGLYKRTPRYPEELELLVSQQSPCGRATSSSRVWWDSSFLGGVVHLEAGEEVVVRVLDERLVRLRDGTRSYFGAFMV
light: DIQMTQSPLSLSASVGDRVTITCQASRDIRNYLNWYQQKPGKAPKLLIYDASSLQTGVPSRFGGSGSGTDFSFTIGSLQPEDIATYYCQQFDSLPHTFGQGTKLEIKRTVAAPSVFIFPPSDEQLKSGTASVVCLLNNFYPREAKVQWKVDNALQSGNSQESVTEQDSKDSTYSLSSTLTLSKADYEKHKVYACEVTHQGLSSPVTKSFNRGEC
notes: Tested as culture medium of transiently transfected CHO cells; not measured for this fusion; also called pBIIBC06-256
B2: huLight (ligand, human, UniProt O43557 66-240, looked up)
ligand chain: GEMVTRLPDGPAGSWEQLIQERRSHEVNPAAHLTGANSSLTGSGGPLLWETQLGLAFLRGLSYHDGALVVTKAGYYYIYSKVQLGGVGCPLGLASTITHGLYKRTPRYPEELELLVSQQSPCGRATSSSRVWWDSSFLGGVVHLEAGEKVVVRVLDERLVRLRDGTRSYFGAFMV
notes: soluble, Flag-tagged; also called Flag-huLIGHT (control)

Experiments:
[1] = target: T3, human LTβR-Ig (human, UniProt P36941 31-227); experiment: ELISA on LTbR-Ig, dilutions of medium of transfected CHO cells
T3 construct: Expressed and purified in house; also called hLTbR-Ig; human LTBR-Ig
T3 sequence (P36941 31-227): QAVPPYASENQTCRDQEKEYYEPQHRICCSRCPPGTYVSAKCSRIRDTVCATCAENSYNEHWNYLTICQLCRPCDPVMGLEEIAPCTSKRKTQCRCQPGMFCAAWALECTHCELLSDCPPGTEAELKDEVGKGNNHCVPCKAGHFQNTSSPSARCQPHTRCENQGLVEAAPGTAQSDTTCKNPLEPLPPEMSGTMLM

[2] = target: T1, human HVEM-Ig; experiment: ELISA, huHVEM-Ig coated at 0.2 ug/ml, HRP anti-Flag mAb; the number is C of the printed 4-P fit (A 0.22, B 1.302, D 1.232, R^2 0.998)
Protocol: (§1) Human and murine ErbB2-Fc were obtained from R&D Systems. Wells of 96-well plates were coated with 2 ug/ml or 0.2 ug/ml of human or murine HER2-Fc by incubation overnight at 4-8° C. with either of these six proteins (80 ul/well of a 0.2 or 2 ug/ml solution in PBS). Wells were emptied, filled completely with a solution of PBS with 1% BSA (blocking buffer) and incubated at room temperature for 1 hour. Wells were emptied, washed twice PBS containing 0.05% Tween 20 (PBST) and filled with the samples (80 ul/well of 3× dilution series of the standard and supernatants in blocking buffer) prepared in another 96-well plate. […] After 1-hour incubation, the wells were emptied and filled with a solution of HRP substrate prepared freshly. The color was left to develop for 3 minutes and was stopped by addition of an equal volume of 1N H₂SO₄. Absorbance was measured at 450 nm using a Plate Reader (SpectraMax, Molecular Devices). The data was processed and graphs were created using SoftMax Pro software.
Human and murine HVEM-Ig were expressed and purified in house.

[3] = target: T3, human LTβR-Ig; experiment: ELISA, huLTBR-Ig coated at 0.2 ug/ml, HRP anti-Flag mAb; the number is C of the printed 4-P fit (A 0.164, B 0.898, D 1.528, R^2 0.999)
[4] = target: T2, murine HVEM-Ig; experiment: ELISA, muHVEM-Ig coated at 0.2 ug/ml, HRP anti-Flag mAb; the number is C of the printed 4-P fit (A 0.027, B 0.575, D 1.071, R^2 0.994)
[5] = target: T3, human LTβR-Ig; experiment: ELISA, huLTBR-Ig coated at 2 ug/ml, HRP anti-Flag mAb; the number is C of the printed 4-P fit y=(A-D)/(1+(x/C)^B)+D (A 0.103, B 0.763, D 1.654, R^2 0.999)
[6] = target: T4, murine LTβR-Ig (mouse, UniProt P50284 31-223); experiment: ELISA, muLTBR-Ig coated at 2 ug/ml, HRP anti-Flag mAb; the number is C of the printed 4-P fit y=(A-D)/(1+(x/C)^B)+D (A 0.125, B 0.915, D 1.615, R^2 0.999)
T4 construct: Expressed and purified in house; also called mLTbR; murine LTBR-Ig
T4 sequence (P50284 31-223): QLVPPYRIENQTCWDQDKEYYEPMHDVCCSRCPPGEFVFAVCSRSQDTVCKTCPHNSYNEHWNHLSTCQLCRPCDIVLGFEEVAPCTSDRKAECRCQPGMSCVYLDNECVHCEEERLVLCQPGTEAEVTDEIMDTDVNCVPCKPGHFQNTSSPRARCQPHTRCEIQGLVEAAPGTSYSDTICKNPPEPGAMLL
Protocol: as §1
(§2) Human and murine LTBR-Ig were expressed and purified in house.

[7] = target: T1, human HVEM-Ig; experiment: ELISA, huHVEM-Ig coated at 2 ug/ml, HRP anti-Flag mAb; the number is C of the printed 4-P fit y=(A-D)/(1+(x/C)^B)+D (A 0.117, B 0.801, D 1.551, R^2 0.998)
[8] = target: T2, murine HVEM-Ig; experiment: ELISA, muHVEM-Ig coated at 2 ug/ml, HRP anti-Flag mAb; the number is C of the printed 4-P fit y=(A-D)/(1+(x/C)^B)+D (A 0.143, B 0.757, D 1.559, R^2 0.999)
[9] = target: T4, murine LTβR-Ig; experiment: ELISA, muLTBR-Ig coated at 0.2 ug/ml, HRP anti-Flag mAb; the number is C of the printed 4-P fit (A 0.044, B 0.606, D 1.329, R^2 0.999); the points end at OD about 1.1 at 10000 ng/ml, upper plateau not reached
Protocol: as §1, §2

Binder	binding result [1]	EC50 [2]	EC50 [3]	EC50 [4]	EC50 [5]	EC50 [6]	EC50 [7]	EC50 [8]	EC50 [9]
B1	binds	–	–	–	–	–	–	–	–
B2	–	1.27 ng/mL	1.33 ng/mL	18.6 ng/mL	2.1 ng/mL	2.39 ng/mL	1.3 ng/mL	1.34 ng/mL	810 ng/mL
